The text below walks through data of the RNAGym collection of RNA variant scans (doi:10.1101/gr.219683.116).

To fix the notation:
B1: mRNA-splicing (parent)
chain: AGUUGCUGCUGGGAGCUCCAGCACAGUGAAAUGGACAGAAGGGCAGAGCAA

The variants in this series derive from B1. Put plainly: exon inclusion enrichment index; higher = more inclusion; WT1 exon 5 minigene, HEK293.
Consider G2A G5C C6U G8C C9U U10C, for which the “exon inclusion enrichment index” value was 2.9.

In the case of G2A U3A G5C C6A U7C G8A U10A, the “exon inclusion enrichment index” value amounted to 0.0895. To U3A U4C C6A U7A C9A U10A belongs 1.27; to U3G U4A G5U G8U C9U, 0.0683; to U3A U4C G5A C6U U7A G8U C9A, 0.3. G2U U3G G5A C6U U7A G8U C9A: the “exon inclusion enrichment index” value stood at 0.348. For U3A U4A G5A C6U U7A G8U C9A, the “exon inclusion enrichment index” value was 0.0823. For the variant U3A U4C G5C C6A U7C G8A U10A, the “exon inclusion enrichment index” value worked out at 0.389. The same measure for U3G U4A C6A U7C C9A U10C: 1.52; for G2C U3G G5A U7C G8A U10C: 2.64. As for G2U G5A C6U U7A G8U C9A, the “exon inclusion enrichment index” value turned out to be 0.188.

For the variant U3C U4C G5U G8U C9U, the “exon inclusion enrichment index” value worked out at 0.335. As for U3A U4A G5U G8U C9U, the “exon inclusion enrichment index” value worked out at 0.296. On to G2A G5A C6G U7G C9A, for which the “exon inclusion enrichment index” value came out at 0.0189. The same measure for U3C U4C G5C C6G U7C U10C: 2.61. The same measure for U4A G8U C9U: 0.0172.

For U3G U4A G5A U7C G8A U10C, the “exon inclusion enrichment index” value stood at 2.25. To G2U U3A G5C C6G U7C U10C belongs 5.21; to U3G G5A C6G U7G C9A, 0.0125; to G2U U3C G5C C6U G8C C9U U10C, 3.63. The same measure for U3C U4A G5A U7C G8A U10C: 2.12; for U4C G5C C6G U7G C9A: 2.21. To G2A U3A G5C C6G U7C U10C belongs 3.39. Consider U3C U4A G5C C6A U7C G8A U10A, for which the “exon inclusion enrichment index” value amounted to 0.0745. The same measure for G2C U3A G5C C6G U7C U10C: 3.34; for U3A U4G G5C C6G U7C U10C: 1.31. To U4G C6A U7A C9A U10A belongs 0.488; to G2C U3G G5C C6A U7C G8A U10A, 0.148; to U3C U4A G5A C6G U7G C9A, 0.0853. To G2A U3A G5A C6U U7A G8U C9A belongs 0.0687.

As to U4A U7C G8A U10C, the “exon inclusion enrichment index” value is 0.474.

Turning to U4A G5C C6U U7A G8U C9A, the “exon inclusion enrichment index” value stood at 0.177. The same measure for U3C U4A G5C C6G U7C U10C: 2.55; for G2A U3A C6A U7A C9A U10A: 0.777. Turning to U4G C6G U7C U10C, the “exon inclusion enrichment index” value is 0.838. The same measure for U3C C6A U7C C9A U10C: 3.44; for U3C U4C C6A U7A C9A U10A: 1.44. Take U4C G5A G8U C9U: the “exon inclusion enrichment index” value is 0.77. To G2U G5A U7C G8A U10C belongs 3.56; to U4C C6U G8C C9U U10C, 2.37; to G2U C6A U7C C9A U10C, 4.3.

With U3G U4A G5C C6G U7C U10C, the “exon inclusion enrichment index” value was 2.08. The same measure for G2C U3G G5C C6U G8C C9U U10C: 1.98. For U4C C6U U7A G8U C9A, the “exon inclusion enrichment index” value came to 1.12. In the case of U4C G5A, the “exon inclusion enrichment index” value is 0.0447. To U4C G5C belongs 0.153; to U4C G5U, 0.105. In the case of U4C G5C U7C G8A U10C, the “exon inclusion enrichment index” value is 1.51. To G2C C6A U7A C9A U10A belongs 0.788; to U4G G5A C6G U7G C9A, 0.00812; to G2A U3A C6A U7C C9A U10C, 2.68. The same measure for G2U U3C G5A U7C G8A U10C: 4.11; for U4A G5U G8U C9U: 0.252. The same measure for G2C U3A G5A C6G U7G C9A: 0.0159; for G2C U3C C6A U7C C9A U10C: 2.79; for U4A C6A U7A C9A U10A: 0.122. G2A U3G C6A U7C C9A U10C: the “exon inclusion enrichment index” value was found to be 2.22. On to U4A G5A C6G U7C U10C, for which the “exon inclusion enrichment index” value is 1.18. The same measure for U3A: 0.364; for U3C: 0.011; for U3G: 0.0194. To G2U U3G G5C C6A U7C G8A U10A belongs 0.503. The same measure for U3G U4A G5A C6U U7A G8U C9A: 0.0777; for U3A U4G G5C C6U G8C C9U U10C: 0.155; for G2U U3C G5U G8U C9U: 0.965. In the case of U3G U4G G5C C6U G8C C9U U10C, the “exon inclusion enrichment index” value worked out at 0.152. The same measure for U3C U4C G5A C6G U7G C9A: 0.127; for U4A G5U C6U U7A G8U C9A: 0.0503; for U3G C6A U7C C9A U10C: 0.785.

With U4C G5A C6G U7C U10C, the “exon inclusion enrichment index” value turned out to be 3.53.

Take G2U C6A U7A C9A U10A: the “exon inclusion enrichment index” value is 1.36.

With U3C U4G C6A U7C C9A U10C, the “exon inclusion enrichment index” value was 2.89.

Take G2C G5A U7C G8A U10C: the “exon inclusion enrichment index” value turned out to be 2. The same measure for G2A U3G G5A U7C G8A U10C: 1.76; for U3G G5C C6G U7C U10C: 1.32. The same measure for G2U U3A G5U G8U C9U: 0.51; for U3A U4G G5A C6U U7A G8U C9A: 0.0692; for U4A G5U C6A U7C G8A U10A: 0.0592. To U3A U4C G5C C6G U7C U10C belongs 3.45; to U3G U4C, 0.16. Turning to U3G U4G, the “exon inclusion enrichment index” value was determined as 0.00805.

On to U3G U4A, for which the “exon inclusion enrichment index” value amounted to 0.0184. To G2C U3A G5A C6U U7A G8U C9A belongs 0.0584.
